Measured values as given in patent US20070037246A1 (LIFESENSORS, published 2007).

Target: 6xHis-CTHS-GFP fusion protein (yeast (SUMO/Smt3 part))
Experiment: mixing of purified proteins in solution, complex shown by Ulp1 cleavage (FIG. 7A)
Procedure: FIG. 7A depicts the experimental results obtained when combining NTHS and CTHS-GFP in solution, resulting in assembly and formation of a cleavable complex. 6xHis-CTHS-GFP fusion protein purified from E. coli was incubated with SUMO hydrolase Ulp1 and 6xHis-NTHS (lanes […]), with 6xHis-NTHS (lanes 1-3) or Ulp1 (lanes 7-9). Release of free GFP can be observed only when all the components are present in the reaction mix. […] Furthermore, purification tags such as, but not limited to 6xHis, GST, MBP, a sequence facilitating covalent coupling to solid support such as Cys residue, may be attached to either the amino- and/or carboxy-termini of NTHS.

B1: 6xHis tagged NTHS (other)
chain: MGHHHHHHGSDSEVNQEAKPEVKPEVKPETHINLKVSDGSSEIFFKIKKTTPLRRLMEAFAK
notes: Purified from E. coli and used in solution in the reconstitution and cleavage experiments; also called 6xHis-NTHS
B1: binds.
